From patent publication US20140056907A1 (Regeneron, published 2014)

Legend:
[1] = molecular target: T1, human ASIC1/ASIC3 channels (co-expressed human ASIC1a and human ASIC3) (human, UniProt Q9UHC3 1-531); assay: FACS, 3T3/hASIC1/3 cells, 10 nM antibody
T1 construct: whole, on cells; 3T3 cells co-expressing both subunits; also called 3T3/hASIC1/3; 3T3-hASIC1/ASIC3
T1 sequence 1: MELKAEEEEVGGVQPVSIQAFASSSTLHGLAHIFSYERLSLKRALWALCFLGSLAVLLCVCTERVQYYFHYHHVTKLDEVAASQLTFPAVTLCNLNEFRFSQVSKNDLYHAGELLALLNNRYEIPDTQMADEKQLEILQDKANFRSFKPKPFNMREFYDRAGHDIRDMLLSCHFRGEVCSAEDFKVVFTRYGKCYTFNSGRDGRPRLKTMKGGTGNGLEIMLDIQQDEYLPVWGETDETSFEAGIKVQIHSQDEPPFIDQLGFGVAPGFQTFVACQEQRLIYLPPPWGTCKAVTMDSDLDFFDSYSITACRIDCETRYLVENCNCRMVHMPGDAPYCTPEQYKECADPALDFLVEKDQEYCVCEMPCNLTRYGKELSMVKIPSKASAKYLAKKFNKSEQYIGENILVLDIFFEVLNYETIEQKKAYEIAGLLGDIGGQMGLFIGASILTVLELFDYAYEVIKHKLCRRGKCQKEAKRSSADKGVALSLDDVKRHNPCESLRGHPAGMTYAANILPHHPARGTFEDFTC
T1 sequence 2: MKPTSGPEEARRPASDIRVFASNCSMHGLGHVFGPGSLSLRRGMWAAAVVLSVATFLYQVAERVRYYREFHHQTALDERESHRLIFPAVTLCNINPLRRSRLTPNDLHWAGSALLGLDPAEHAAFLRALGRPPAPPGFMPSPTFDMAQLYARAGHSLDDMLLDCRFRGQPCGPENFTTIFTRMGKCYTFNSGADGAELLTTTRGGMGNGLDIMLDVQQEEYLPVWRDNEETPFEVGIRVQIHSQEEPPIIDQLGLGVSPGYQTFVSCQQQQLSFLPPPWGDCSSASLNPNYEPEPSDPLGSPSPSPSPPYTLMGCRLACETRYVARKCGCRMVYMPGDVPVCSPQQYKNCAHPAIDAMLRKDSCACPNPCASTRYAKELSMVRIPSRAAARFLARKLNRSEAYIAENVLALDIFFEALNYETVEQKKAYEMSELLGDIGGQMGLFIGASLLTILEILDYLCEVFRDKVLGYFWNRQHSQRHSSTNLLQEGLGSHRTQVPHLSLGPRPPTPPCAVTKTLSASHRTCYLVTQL
Source text: (§1) For these experiments, four cell lines were constructed: (a) a mouse fibroblast 3T3 cell line stably transfected to overexpress full length human ASIC3 (3T3/hASIC3; amino acids 1-531 of NCBI accession number NP_{—}004760.1), (b) a 3T3 cell line stably transfected to co-express full length human ASIC1a and human ASIC3 (3T3/hASIC1/3; amino acids 1-528 of NCBI accession number NP_{—}001086.2 and amino acids 1-531 of NCBI accession number NP_{—}004760.1), (c) […] a stably transfected 3T3 cell line expressing the full-length mouse ASIC3 channel (3T3/mASIC3; amino acids 1-530 of NCBI accession number NP_{—}892045.2), and (d) a 3T3 cell line stably transfected to co-express full length mouse ASIC1a and mouse ASIC3 (3T3/mASIC1/3; amino acids 1-526 of NCBI accession number NP_{—}033727 and amino acids 1-530 of NCBI accession number NP_{—}892045.2). Antibody binding was determined using flow cytometry (FACS).
(§2) To perform the FACS binding experiments, adherent cells were collected with cold Millipore Accutase 3-5 minutes, spun and resuspended in ice-cold FACS buffer (PBS, 2% HI-FBS and 0.09% Na-azide). Anti-ASIC1 antibody at final concentrations of 10 nM was added for 20-30 minutes on ice. Cells were washed with 900 μL ice-cold FACS buffer, spun, and resuspended in 100 μL ice-cold FACS buffer. A secondary antibody which recognizes human Fc (Jackson Immuno Research, #109-136-098) and is conjugated to allophycocyanin, was then added to the cell mixture at a final concentration of 2.5 ug/mL. After incubating for 20 minutes on ice, the cells were washed and resuspended in FACS buffer, then sorted and analyzed on a flow cytometer (FACSCanto II, BD Biosciences, San Jose, Calif.) to determine relative binding by the candidate antibodies to the tested cell lines. Histograms of cells stained with anti-ASIC1 antibodies were compared with those of cells stained with secondary antibody alone. Percentage of ASIC1 signal over secondary antibody alone was calculated using FlowJo software (Tree Star, Ashland, Oreg.).

human ASIC1 [2] = molecular target: T2, human ASIC1 (human, UniProt P78348 1-528); assay: FACS titration, 3T3/hASIC1 cells
T2 construct: Ion channel subunit expressed on 3T3 (3T3/hASIC1) or HEK293 cells (HEK/hASIC1; HEK293 CL:1F10 transient); also called hASIC1; human ASIC1a
T2 sequence: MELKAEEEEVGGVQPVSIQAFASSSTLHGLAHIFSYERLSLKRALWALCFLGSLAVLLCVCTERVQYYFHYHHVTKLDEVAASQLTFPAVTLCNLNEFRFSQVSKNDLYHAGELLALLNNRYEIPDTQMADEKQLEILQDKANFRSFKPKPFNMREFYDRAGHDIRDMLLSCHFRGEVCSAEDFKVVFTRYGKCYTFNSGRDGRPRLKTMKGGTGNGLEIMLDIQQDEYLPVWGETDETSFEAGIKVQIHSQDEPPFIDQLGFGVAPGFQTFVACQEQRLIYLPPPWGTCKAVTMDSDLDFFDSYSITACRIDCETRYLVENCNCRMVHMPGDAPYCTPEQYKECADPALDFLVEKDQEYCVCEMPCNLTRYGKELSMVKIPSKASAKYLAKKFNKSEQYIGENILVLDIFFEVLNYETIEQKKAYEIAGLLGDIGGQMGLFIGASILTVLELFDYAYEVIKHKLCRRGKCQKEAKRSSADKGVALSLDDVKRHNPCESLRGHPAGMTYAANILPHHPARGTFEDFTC
Experimental: To perform the FACS binding experiments, adherent cells were collected using 1 mM EDTA in PBS, then washed, and re-suspended in cold PBS containing 5% FBS. For each binding experiment, each anti-ASIC1 antibody ([…] or ND7 cells) was added to 250,000 cells in 500 μL of PBS with 5% FBS. After incubation for 20 minutes at room temperature, a secondary antibody which recognizes human Fc (Cat. No. 109-136-098, Jackson ImmunoResearch Laboratories, Inc., West Grove, Pa.) or mouse Fc (Cat. No. 550826, BD Biosciences, San Jose, Calif.) and is conjugated to allophycocyanin, was then added to the cell mixture at a final concentration of 13.3 nM. After incubating for 20 minutes on ice, the cells were washed and resuspended in PBS containing 5% FBS, then sorted and analyzed on a flow cytometer (FACSCalibur, BD Biosciences, San Jose, Calif.) to determine relative binding by the candidate antibodies to the tested cell lines. Histograms of cells stained with anti-ASIC1 antibodies were compared with those of cells stained with secondary antibody alone. Percentage of ASIC1 signal over secondary antibody alone was calculated using FlowJo software (Tree Star, Ashland, Oreg.).

human ASIC3 [3] = molecular target: T3, human ASIC3 (human, UniProt Q9UHC3 1-531); assay: FACS, 3T3/hASIC3 cells, 10 nM antibody
T3 construct: whole, on cells; Expressed on 3T3 cells (3T3/hASIC3) or HEK293 cells (HEK/hASIC3-QCells); also called hASIC3
T3 sequence (looked up): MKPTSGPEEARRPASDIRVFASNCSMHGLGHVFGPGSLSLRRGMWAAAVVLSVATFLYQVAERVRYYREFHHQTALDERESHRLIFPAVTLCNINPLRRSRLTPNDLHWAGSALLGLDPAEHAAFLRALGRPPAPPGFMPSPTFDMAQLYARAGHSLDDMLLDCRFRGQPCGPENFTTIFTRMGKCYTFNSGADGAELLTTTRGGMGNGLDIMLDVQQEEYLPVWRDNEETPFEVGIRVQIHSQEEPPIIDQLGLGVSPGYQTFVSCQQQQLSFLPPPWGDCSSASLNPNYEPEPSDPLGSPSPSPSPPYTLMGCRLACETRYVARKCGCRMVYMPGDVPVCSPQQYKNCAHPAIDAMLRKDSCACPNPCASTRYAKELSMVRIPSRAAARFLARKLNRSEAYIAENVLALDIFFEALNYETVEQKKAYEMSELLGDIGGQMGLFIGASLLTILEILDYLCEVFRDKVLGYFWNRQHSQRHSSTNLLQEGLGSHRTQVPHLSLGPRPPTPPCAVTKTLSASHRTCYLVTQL
Source text: as §1, §2

human ASIC1 [4] = molecular target: T2, human ASIC1; assay: cell-based or functional assay
mouse ASIC1a = molecular target: T4, mouse ASIC1a (mouse, UniProt Q6NXK8 1-526); assay: cell-based or functional assay
T4 sequence (looked up): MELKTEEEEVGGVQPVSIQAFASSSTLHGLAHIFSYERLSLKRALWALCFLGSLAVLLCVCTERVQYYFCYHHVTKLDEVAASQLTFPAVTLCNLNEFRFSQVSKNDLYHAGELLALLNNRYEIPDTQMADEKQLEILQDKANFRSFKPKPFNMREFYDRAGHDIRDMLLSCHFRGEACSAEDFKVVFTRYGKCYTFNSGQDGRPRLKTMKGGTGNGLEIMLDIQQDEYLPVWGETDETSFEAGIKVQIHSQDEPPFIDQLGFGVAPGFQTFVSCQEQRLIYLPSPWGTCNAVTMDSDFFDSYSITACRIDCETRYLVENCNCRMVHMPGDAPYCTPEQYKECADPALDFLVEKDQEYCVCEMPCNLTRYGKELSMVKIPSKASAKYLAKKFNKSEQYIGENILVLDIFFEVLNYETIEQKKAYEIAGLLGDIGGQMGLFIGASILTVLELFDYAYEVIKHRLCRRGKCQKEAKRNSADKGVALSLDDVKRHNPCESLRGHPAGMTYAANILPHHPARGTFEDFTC

human ASIC1 [5] = molecular target: T2, human ASIC1; assay: cell-based or functional assay; remark: listed apart in the source
human ASIC3 [6] = molecular target: T3, human ASIC3; assay: FACS, 3T3/hASIC3 cells
Source text: as §1, §2

B1: H4H6364P (antibody, human IgG4, V domains shown)
VH: EVQLVESGGGLVQSGGSLRLSCAASGFTFSRYWMSWVRQAPGKGLEWVANIKQDGSEKDYVDSVKGRFTISRDNTKSSLFLQMNSLRAEDTAVYYCAKERWNWNFFDYWGQGTLVTVSS
VL: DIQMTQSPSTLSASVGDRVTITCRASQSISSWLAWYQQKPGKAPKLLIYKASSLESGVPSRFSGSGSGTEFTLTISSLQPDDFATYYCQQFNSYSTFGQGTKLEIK
- binding result [1]: binds
- EC50 (human ASIC1 [2]): 1.5 nM
- binding result (human ASIC3 [3]): binds
- Current inhibition (%) at 100 nM antibody, Q-Patch, pH 6.0 (human ASIC1 [4]): 0%

B2: H3M7118N (antibody, V domains shown)
VH: EVQLLESGGGLVQPGGSLRLSCAASGFTFRNYAMSWVRQAPGKGLEWVSAINGGGDSTYYADSVKGRFTISRDNSKNTLYLQMNSLRAEDTAVYYCAKEEGDWNYVGYGYYYYYGMDVWGQGTTVTVSS
VL: DIQMTQSPSSMSASVGDRVTITCRASQGISSWLAWYQQKPGKAPKLLIYAASSLQSGVPSRFSGSGSGTDFTLTIRSLQPEDFATYYCQQANSFPYTFGQGTKLEIK
notes: Chimeric: human variable, mouse constant domains; H3M prefix marks the Fc, isotype not spelled out
- apparent IC50, mouse ASIC1 current, Q-Patch (mouse ASIC1a): < 25 nM
- apparent IC50, human ASIC1 current, Q-Patch (human ASIC1 [5]): ≤ 10 nM
- EC50 (human ASIC1 [2]): > 67 nM

B3: H4H6721N2 (antibody, human IgG4, V domains shown)
VH: EVQLLASGGGLVQPGGSLRLSCAASGFTFSSFAMSWVRQAPGKGLEWVSGISGSGVSTYYADSVKGRFTISRDNSKNTLYLQMNSLRAEDTAAYYCAKEAYKWQPWGQGTLVTVSS
VL: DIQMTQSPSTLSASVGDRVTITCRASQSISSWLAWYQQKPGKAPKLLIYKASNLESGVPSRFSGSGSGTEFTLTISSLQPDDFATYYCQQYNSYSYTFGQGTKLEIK
- apparent IC50, human ASIC1 current, Q-Patch (human ASIC1 [5]): < 1 nM
- binding result [1]: binds
- EC50 (human ASIC1 [2]): 1.7 nM
- binding result (human ASIC3 [6]): no binding (tested: 10 nM; gated lower than 1%)

B4: H4H7101N (antibody, human IgG4, V domains shown)
VH: EVQLLASGGGLVQTGGSLRLSCAASGFTFSSFAMSWVRQAPGKGLEWVSGISGSGGSTYYADSVKGRFTISRDNSKNTLYLQMNSLRAEDTAAYYCAKEAYKWQPWGQGIRVTVSS
VL: DIQMTQSPSTLSASVGDRVTITCRASQSISSWLAWYQQKPGKAPNLLIYKTSNLESGVPSRFSGSGSGTEFTLTISSLQPDDFATYYCQQYNSYSYTFGQGTKLEIK
- binding result [1]: binds
- binding result (human ASIC3 [6]): no binding (tested: 10 nM; gated lower than 1%)
